B1: TERF1-interacting nuclear factor 2 (Mus musculus), Q9QXG9 (parent)
chain: MAPPPGVGPASLRFAAAASWLVVRRRRVEHFPKVVEFLQSLRAAAPGLVCYRHHERLCMSLKAKVVVELILQARPWDQVLNALKHHFPAESRTTKEDRKLLEARENFCLLVKHLSEDPPSSLQELEQDYGESFLVAMEKLLFEYLCQLEKALPPVRAQELQDALSWSQPGSFITSSVALHQYGMDMGWTFPESSTSGSGNLIEPMEESPHQQTRPAFHSPLPKAKLGPHQPASLEHPEHLAGHRFNLAPLGKRKSRSHWTSAKACHKERPTVMLLPFRNMGLPAQDLSNPKSREEPGAASAASVGTEPVCTEEAKTPSRPLGKRALEETPPDSPAASRRTV
partner: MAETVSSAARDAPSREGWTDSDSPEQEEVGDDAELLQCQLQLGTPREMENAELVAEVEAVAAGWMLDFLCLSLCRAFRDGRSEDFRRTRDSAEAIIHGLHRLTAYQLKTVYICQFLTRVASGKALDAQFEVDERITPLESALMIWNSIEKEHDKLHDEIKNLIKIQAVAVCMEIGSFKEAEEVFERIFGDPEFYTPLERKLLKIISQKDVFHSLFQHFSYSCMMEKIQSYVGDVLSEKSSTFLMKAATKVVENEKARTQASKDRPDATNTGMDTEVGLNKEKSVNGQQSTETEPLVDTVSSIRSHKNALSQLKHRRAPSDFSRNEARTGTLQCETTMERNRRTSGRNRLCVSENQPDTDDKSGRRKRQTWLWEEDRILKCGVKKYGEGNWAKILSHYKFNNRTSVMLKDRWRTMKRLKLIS

Variants of: B1
Conditions: with terf1_mouse Terf1, P70371

effect of a mutation on the interaction	Variant
disrupting interaction	MAPPPGVGPASLRFAAAASWLVVRRRRVEHFPKVVEFLQSLRAAAPGLVCYRHHERLCMSLKAKVVVELILQARPWDQVLNALKHHFPAESRTTKEDRKLLEARENFCLLVKHLSEDPPSSLQELEQDYGESFLVAMEKLLFEYLCQLEKALPPVRAQELQDALSWSQPGSFITSSVALHQYGMDMGWTFPESSTSGSGNLIEPMEESPHQQTRPAFHSPLPKAKLGPHQPASLEHPEHLAGHRFNEAPLGKRKSRSHWTSAKACHKERPTVMLLPFRNMGLPAQDLSNPKSREEPGAASAASVGTEPVCTEEAKTPSRPLGKRALEETPPDSPAASRRTV [L247E]

Reference: IntAct's records for PubMed 24469404
